Experimental data published in article PMC10306299.

Target: T1, CytRN (CytR DNA-binding domain) (Escherichia coli, UniProt P0ACN7 1-66)
T1 sequence: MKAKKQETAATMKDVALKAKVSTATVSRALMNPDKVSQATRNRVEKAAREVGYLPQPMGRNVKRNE
Experiment: NMR

B1: udp half-site DNA (dsDNA)
DNA 1: ATTTATGCAACGCA
DNA 2: TGCGTTGCATAAAT
binding result: binds
